Four molecules from patent US20250282887A1 (Amgen, published 2025) can be followed below.

In experiment [1] the target is T1, human MAGEA12 (human, UniProt P43365 1-314).
T1 construct: whole, on cells; FFPE cell pellets
Kind of experiment: IHC, FFPE CHO cells transfected with human MAGEA12. An excerpt: (§1) Negative control cells included parental Chinese hamster ovary (CHO) cells, CHO cells stably transfected with mCherry Vector Control (minus Myc/DDK tags), CHO cells stably transfected with mCherry-human DCAF4L2 (plus Myc/DDK tags). The cross-reactivity control cells included CHO cells transfected with mCherry Vector Control (plus Myc/DDK tags) with one of the human MAGE-B or MAGE-A family members (MAGEA1, MAGEA2, MAGEA3, MAGEA4, MAGEA5, MAGEA6, MAGEA8, MAGEA9, MAGEA11, MAGEA12, MAGEB1, MAGEB3, MAGEB4, MAGEB5, MAGEB6, MAGEB10, MAGEB16, MAGEB17, MAGEB18). Positive control cell lines included CHO cells transfected with mCherry Vector (plus Myc/DDK tags) with human MAGE-B2 or CHO cells transfected with mCherry Vector (open reading frame (ORF); minus Myc/DDK tags) with human MAGEB2, and thirteen human cancer cell lines with known endogenous RNA expression level of MAGEB2 (U266B1, T98G, KMM-1, U20S, CFPAC-1, SCaBER, UACC-257, CFPAC-1, VMRC-LCD, NCI-H1703, UM-UC-3, NCI-H1395, NCIH82).
(§2) FFPE samples were sectioned at 4 μm and mounted on positive charged glass slides. After mounting, paraffin sections were air-dried at room temperature. FFPE TMA samples were received as freshly sectioned and mounted on glass slides. The fully automated IHC assay was performed on a Discovery Ultra Stainer (Ventana Medical Systems, Tucson, AZ) using Ventana Anti-Rabbit HQ (cat #760-4815), Ventana Anti-HQ HRP (cat #760-4820), and Ventana Antibody Diluent with Casein (cat #760-219) (Ventana Medical Systems, Tucson, AZ). The slides were baked on the Discovery Ultra Stainer at 60° C. for 8 minutes, de-paraffinized with Ventana Discovery wash (cat #950-510) for 3 cycles (8 minutes each) at 69° C., and underwent cell conditioning (target retrieval) at 95° C. for 16 minutes (for cell arrays) or 32 minutes (tissues or TMAs) in CC1 buffer (cat #950-500). Following this, slides were incubated with Background Sniper (cat #BS966M, Biocare Medical, Pacheco, CA) in a Ventana Option Prep kit (cat #771-751) for 28 minutes, incubated with CM inhibitor (a part of the Ventana DAB kit cat #760-159) for 12 minutes, and incubated for 1 h at RT with MAGE-B2 antibody diluted with Ventana diluent with Casein in a Ventana Prep kit (cat #770-001) (working concentration at 0.1 μg/ml for cell pellet, or 1-5 ug/ml for tissues) or with a matched concentration of isotype control Rabbit IgG1 antibody.

The target in experiment [2] is T2, Human MAGEB2 (Melanoma-associated antigen B2) (human, UniProt O15479 1-319).
T2 construct: Intracellular antigen detected by IHC in FFPE material: CHO cells transfected with human MAGEB2 (mCherry vector with Myc/DDK tags, or ORF without tags)
T2 sequence: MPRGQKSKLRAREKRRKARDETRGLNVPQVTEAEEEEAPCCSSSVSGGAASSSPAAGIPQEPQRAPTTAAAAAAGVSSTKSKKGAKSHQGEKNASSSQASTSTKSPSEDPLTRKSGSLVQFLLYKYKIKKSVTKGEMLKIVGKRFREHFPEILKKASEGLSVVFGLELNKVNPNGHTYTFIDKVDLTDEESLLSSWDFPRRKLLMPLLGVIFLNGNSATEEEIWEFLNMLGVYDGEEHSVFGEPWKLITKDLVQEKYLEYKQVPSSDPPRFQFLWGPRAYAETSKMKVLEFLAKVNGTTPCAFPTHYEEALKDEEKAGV
Nature of the experiment: IHC on FFPE SCaBER cells (endogenous MAGEB2). The protocol:
as §2, with “antibody. Following this, slides were incubated with the Ventana Anti-Rabbit HQ (cat #760-4815) for 28 minutes at RT, Ventana Anti-HQ HRP (cat #760-4820) for 28 minutes at RT, and signals detected with Ventana DAB chromogen kit (cat #760-159) for 5 minutes at RT. Slides were counterstained with Ventana Hematoxylin II (cat #5266726001) for 8 minutes and Ventana Bluing reagent (cat #526676900) for 4 minutes. Slides were coverslipped and digitized using an Aperio AT2 scanner (Leica Biosystems Inc, Buffalo Grove, IL).” for “antibody.”

Experiment [3] has as its target T2, Human MAGEB2 (Melanoma-associated …). Kind of experiment: IHC on FFPE U20S cells (endogenous MAGEB2). The procedure:
as §2, with “antibody. Following this, slides were incubated with the Ventana Anti-Rabbit HQ (cat #760-4815) for 28 minutes at RT, Ventana Anti-HQ HRP (cat #760-4820) for 28 minutes at RT, and signals detected with Ventana DAB chromogen kit (cat #760-159) for 5 minutes at RT. Slides were counterstained with Ventana Hematoxylin II (cat #5266726001) for 8 minutes and Ventana Bluing reagent (cat #526676900) for 4 minutes. Slides were coverslipped and digitized using an Aperio AT2 scanner (Leica Biosystems Inc, Buffalo Grove, IL).” for “antibody.”

Experiment [4] has as its target T3, human MAGEB5 (human, UniProt Q9BZ81 1-275).
T3 construct: whole, on cells; Transfected into CHO cells with Myc/DDK tags; also called CHO-MAGEB5+ cells
T3 sequence (looked up): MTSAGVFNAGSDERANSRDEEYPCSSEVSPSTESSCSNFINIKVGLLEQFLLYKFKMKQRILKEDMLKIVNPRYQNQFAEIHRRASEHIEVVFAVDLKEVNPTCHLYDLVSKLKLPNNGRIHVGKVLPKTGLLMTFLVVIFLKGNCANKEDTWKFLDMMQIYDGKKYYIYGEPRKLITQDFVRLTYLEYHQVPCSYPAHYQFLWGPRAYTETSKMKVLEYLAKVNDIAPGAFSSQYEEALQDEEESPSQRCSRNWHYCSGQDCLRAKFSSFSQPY
Kind of experiment: IHC, FFPE CHO cells transfected with human MAGEB5.
From the text: as §1, §2

Substitutions are numbered along the chain they refer to.

T1 sequence (P43365 whole entry): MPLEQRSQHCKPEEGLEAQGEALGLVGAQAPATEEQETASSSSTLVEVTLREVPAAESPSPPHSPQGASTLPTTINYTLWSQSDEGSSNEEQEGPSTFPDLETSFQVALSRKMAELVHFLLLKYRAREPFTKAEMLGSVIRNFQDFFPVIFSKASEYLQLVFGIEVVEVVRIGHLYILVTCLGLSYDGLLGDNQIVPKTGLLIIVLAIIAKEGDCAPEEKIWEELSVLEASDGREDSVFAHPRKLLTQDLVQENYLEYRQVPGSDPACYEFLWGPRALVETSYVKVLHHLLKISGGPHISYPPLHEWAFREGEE

B1: 1C3 (antibody, V domains shown)
VH: QSLEESGGGLVQPEGSLTLTCTAFGVTLTNYYICWVRQAPGKGLEWVGCIDNANGRTYYASWAKGRFTISKTSSTTGTLQMTSLTAADTATYFCARSLATPLWGPGTLVTVSS
VL: DIVMTQTPSSVEAAVGGTVTIKCQASQNISSYLAWYQQKPGQPPKLLIYRASTLASGVPSRFKGSGSGTQFTLTISDLECADAATYYCQSYDDSRSSNFFYAFGGGTEVVVKG
notes: also called MAGE-B2 (IC3); anti-MAGEB2 antibody 1C3
Turning to B1, the binding result in experiment [1] and in experiment [4] was “no binding (tested: 0.1 µg/ml)” throughout. The results for the “IHC % Frequency” value in experiment [2] and in experiment [3] were 70% and 60%, respectively. The “IHC Intensity” value in experiment [2] and in experiment [3] was 2 in each case.

B2: 4G17 (antibody, IgG1, V domains shown)
VH: B1 VH with F24S, T29S, V47I, A53V
VL: DIVMTQTPASVEAAVGGTVTIKCQASQNIDSYLAWYQQKPGQPPKLLIYRASTLASGVPSRFKGSGSGTEFTLTISDLECADAATYYCQSYDDSRSSSFFYGFGGGTEVVVK
notes: Rabbit monoclonal IgG1; Tested as supernatant and as small batch purified antibody; also called MAGE-B2 (4G17); anti-MAGEB2 antibody 4G17
Consider B2, for which the binding result in experiment [1] and in experiment [4] was “no binding (tested: 0.1 µg/ml)” in each case. Moreover, the “IHC % Frequency” value amounted to 70% in experiment [2] and 60% in experiment [3]. Also, the “IHC Intensity” value in experiment [2] and in experiment [3] was 2 each time.

B3: 1J15 (antibody, IgG1, V domains shown)
VH: B1 VH with V26F, T29N, V47I, G48A, G77V, A99S
VL: B2 VL with N28S, D30S, A34S, K63R, E70Q, R95S, S96D, S97N, S98N, K112R
notes: Rabbit monoclonal IgG1; Tested as supernatant and as small batch purified antibody; also called MAGE-B2 (IJ15); anti-MAGEB2 antibody 1J15
On to B3, for which the binding result in experiment [1] and in experiment [4] was “no binding (tested: 0.1 µg/ml)” throughout. The “IHC % Frequency” value in experiment [2] and in experiment [3] was 50% each time. For the same molecule, the “IHC Intensity” value in experiment [2] worked out at 2; in experiment [3] it was 1.

B4: 1I14 (antibody, V domains shown)
VH: QSVEESGGRLVTPGTPLTLTCTISGFSLSSYAMSWVRQAPGKGLEWIGSIGGGGSAVYASWAKGRFTISKTSTTVDLRITSPTTEDTAMYFCGRGFYSIDLWGPGTLVTVSS
VL: DVVMTQTPASVEATVGGTVTIKCQSSQSVYDNNALAWYQQNAGQRPRLLIYGASTLASGVPSRFSASGSGTEFTLTISDLECADAATYYCQCTYYVSSYQNDFGGGTEVVVKG
notes: also called MAGE-B2 (1i14)
Turning to B4, the binding result in experiment [1] and in experiment [4] was “no binding (tested: 0.1 µg/ml)” in each case. Further, the “IHC % Frequency” value turned out to be 0% in experiment [2] and 70% in experiment [3]. Also, the “IHC Intensity” value was 0 in experiment [2] and 2 in experiment [3].
